Reference: US20070286806A1, “Methods and Compositions for Modulating a Steroid Receptor” (Mount Sinai Hospital, priority 2004, published 2007)

Columns and labels:
PRA and PRB protein = test: PR protein level by western blot of whole cell lysate after co-transfection in SHM cells; format: cell-based
Procedure: FIG. 5. […] (A) SHM cells were transient transfected (eighteen hours) with PRA or PRB expression vector with or without increasing doses (0.2, 0.5, 1.0 and 2.0 μg) of His-PSF vector as indicated. Whole cell lysate was analyzed by western blot with PR or His tag antibody. NS=non-specific binding. (B) SHM cells were transient transfected (eighteen hours) with PRA or PRB expression vector together with 2.0 μg His tagged PSF1-707 or truncated PSF1-662. Culture media was added with or without 60 nM MG132 (Z-Leu-Leu-Leu-a1) as indicated for another 6 hours. Whole cell lysate was analyzed by western blot with PR or His tag antibody. Gβ protein was also detected as the cell lysate loading control.
For immunoprecipitation of the endogenous PR and PSF, T47D cells cultured in 150 mm dishes were lysed in 800 μl NETN buffer containing 150 mM NaCl plus protease inhibitor cocktail. Cell lysate were then incubated with 5 μg of PR or PSF, or control mouse IgG at 4° C. overnight, followed by the addition of 30 μl of protein A/G PLUS-agarose beads (Santa Cruz) for another two hours at 4° C. Resins were washed with NETN containing 250 mM NaCl and eluted with 1×Laemmli buffer. The eluted proteins along with the whole cell extract were western blotted by PR or PSF antibody. • GST pulldown assay: GST pulldown assay was performed as previously described (20). GST and its fusion proteins were first immobilized to glutathione-Sepharose 4B affinity matrix. The matrix was then incubated at 4° C. overnight with rabbit reticulocyte lysate (Promega) containing PR or His-PSF transcribed and translated in presence of ^35S methionine. The matrix was washed three times with cold NETN buffer before adding 1 ×Laemmli buffer to elute associated proteins. The eluted proteins were separated on 10% SDS-PAGE gel. Gels were treated with Enhancer (NEN, Boston, US) dried and analyzed by autoradiography. • Cell culture and transient transfection: SHM cells and 293T cells were maintained in DMEM plus 5% FCS (Sigma) as described before (22). For experiments involving steroid exposure, the medium was substituted with phenol red free DMEM containing 5% charcoal-treated fetal bovine serum (Hyclone, Utah, USA). Transfection was performed according to manufacturers protocol (Fementas). Cells were seeded at a density to achieve 60-80% confluency the following day. The DNA and transfection reagent were mixed and added to the medium. Cell lysates were collected at least 30 hours after transfection. For luciferase assay, cells were collected in 200 μl of lysis buffer (Promega) of which 10μl was used for the luciferase and β-Gal activity assays respectively. Luciferase activity was determined by using the luciferin reagent (Promega) according to manufacture's protocol. […]

glucocorticoid receptor = target: T1, glucocorticoid receptor (Mesocricetus auratus, UniProt A0A1U8BQ22); test: Glucocorticoid receptor transactivation in SHM cells, MMTV-Luc reporter; format: cell-based; details: 1 nM Dex
T1 construct: endogenous in cells; host or cells: SHM (Syrian hamster myocyte) cells
T1 sequence (A0A1U8BQ22 1-774): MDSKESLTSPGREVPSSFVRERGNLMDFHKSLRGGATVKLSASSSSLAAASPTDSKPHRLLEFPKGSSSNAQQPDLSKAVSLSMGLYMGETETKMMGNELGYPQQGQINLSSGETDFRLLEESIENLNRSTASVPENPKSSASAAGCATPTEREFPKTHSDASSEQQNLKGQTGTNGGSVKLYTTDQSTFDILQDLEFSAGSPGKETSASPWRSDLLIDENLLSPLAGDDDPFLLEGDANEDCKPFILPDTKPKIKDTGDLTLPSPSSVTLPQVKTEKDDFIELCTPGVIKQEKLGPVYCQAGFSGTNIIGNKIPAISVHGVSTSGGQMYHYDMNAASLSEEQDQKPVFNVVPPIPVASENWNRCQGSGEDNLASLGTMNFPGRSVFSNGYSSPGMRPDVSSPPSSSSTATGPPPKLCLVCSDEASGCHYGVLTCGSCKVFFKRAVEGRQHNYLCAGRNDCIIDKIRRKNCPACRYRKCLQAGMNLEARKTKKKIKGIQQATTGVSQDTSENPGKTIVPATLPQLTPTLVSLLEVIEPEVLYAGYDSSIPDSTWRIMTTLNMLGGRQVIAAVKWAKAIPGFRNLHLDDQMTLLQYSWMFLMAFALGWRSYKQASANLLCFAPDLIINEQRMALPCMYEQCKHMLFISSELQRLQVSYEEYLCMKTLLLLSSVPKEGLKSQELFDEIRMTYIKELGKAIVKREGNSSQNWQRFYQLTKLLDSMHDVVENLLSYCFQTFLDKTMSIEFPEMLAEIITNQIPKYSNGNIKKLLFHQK
Procedure: Hamster smooth muscle cells (SHM) were transiently transfected with PSF-A expression vector together with a MMTV-Luc reporter vector. Cells were treated with either vehicle or 1 nM Dex for at least 24 hours. Luciferase activities were measured and normalized by β-galactosidase acitvity. Data shown in FIG. 13 are the mean of three separate experiments performed in triplicate ±S.E. Note: the empty vector pcDNA3 was added to the DNA mixture to ensure that the amounts of CMV promoter in all the transfection assays are equal.

B1: polypyrimidine tract binding protein-associated splicing factor (protein)
chain: MSRDRFRSRGGGGGGFHRRGGGGGRGGLHDFRSPPPGMGLNQNRGPMGPGPGQSGPKPPIPPPPPHQQQQQPPPQQPPPQQPPPHQPPPHPQPHQQQQPPPPPQDSSKPVVAQGPGPAPGVGSAPPASSSAPPATPPTSGAPPGSGPGPTPTPPPAVTSAPPGAPPPTPPSSGVPTTPPQAGGPPPPPAAVPGPGPGPKQGPGPGGPKGGKMPGGPKPGGGPGLSTPGGHPKPPHRGGGEPRGGRQHHPPYHQQHHQGPPPGGPGGRSEEKISDSEGFKANLSLLRRPGEKTYTQRCRLFVGNLPADITEDEFKRLFAKYGEPGEVFINKGKGFGFIKLESRALAEIAKAELDDTPMRGRQLRVRFATHAAALSVRNLSPYVSNELLEEAFSQFGPIERAVVIVDDRGRSTGKGIVEFASKPAARKAFERCSEGVFLLTTTPRPVIVEPLEQLDDEDGLPEKLAQKNPMYQKERETPPRFAQHGTFEYEYSQRWKSLDEMEKQQREQVEKNMKDAKDKLESEMEDAYHEHQANLLRQDLMRRQEELRRMEELHNQEMQKRKEMQLRQEEERRRREEEMMIRQREMEEQMRRQREESYSRMGYMDPRERDMRMGGGGAMNMGDPYGSGGQKFPPLGGGGGIGYEANPGVPPATMSGSMMGSDMRTERFGQGGAGPVGGQGPRGMGPGTPAGYGRGREEYEGPNKKPRF
notes: expressed from transfected His-PSF vector or in vitro translated
PR proteins after co-transfection with PRB/PRA (PRA and PRB protein; after 24 hours): total loss of PR proteins | level of PRA and PRB protein (PRA and PRB protein; increasing dose of PSF expression vector, constant dose of PR vector): decrease | glucocorticoid receptor activation of the MMTV promoter (glucocorticoid receptor): blocks its activation of the MMTV promoter
